The results in this text go back to patent EP4647441A1 (dated 2025).

Assay [1] concerns the target HLA-A*11:01 loaded with KRAS-G12D peptide … (human). Description: cell-based or functional assay.
For assay [2], the target named is HLA-A*11:01 loaded with KRAS-G12V peptide … (human). The assay can be described thus: cell-based or functional assay.
Assay [3] concerns the target T1, KRAS G12C peptide on HLA-A*11:01 (human).
T1 peptide: VVVGACGVGK
Description: killing.

Assay [4] has as its target T2, KRAS G12A peptide on HLA-A*11:01 (human).
T2 peptide: VVVGAAGVGK
The assay can be described thus: killing.

The target in assay [5] is T3, KRAS G12S peptide on HLA-A*11:01 (human).
T3 peptide: VVVGASGVGK
The assay can be described thus: killing.

The target in assay [6] is T4, KRAS G12V peptide on HLA-A*11:01 (human).
T4 peptide: VVVGAVGVGK
Description: CD69 by flow cytometry; TCR1-transduced Jurkat cells with K562-A*11:01 loaded with peptide at 10^-11 to 10^-6 M; full-length, on cells. A general note: A flow cytometer gives signals particle by particle.

Assay [7] concerns the target T5, KRAS G12D peptide on HLA-A*11:01 (human).
T5 peptide: VVVGADGVGK
The description is as above.

B1: HLA-A*11:01/KRAS G12V-specific TCR1 (TCR)
TCR alpha: KQEVTQIPAALSVPEGENLVLNCSFTDSAIYNLQWFRQDPGKGLTSLLLIQSSQREQTSGRLNASLDKSSGRSTLYIAASQPGDSATYLCAVNSYSGAGSYQLTFGKGTKLSVIPNIQNPDPAVYQLRDSKSSDKSVCLFTDFDSQTNVSQSKDSDVYITDKTVLDMRSMDFKSNSAVAWSNKSDFACANAFNNSIIPEDTFFPSPESSCDVKLVEKSFETDTNLNFQNLSVIGFRILLLKVAGFNLLMTLRLWSS
TCR beta: EPEVTQTPSHQVTQMGQEVILRCVPISNHLYFYWYRQILGQKVEFLVSFYNNEISEKSEIFDDQFSVERPDGSNFTLKIRSTKLEDSAMYFCASRGGGEQYFGPGTRLTVTEDLKNVFPPEVAVFEPSEAEISHTQKATLVCLATGFYPDHVELSWWVNGKEVHSGVSTDPQPLKEQPALNDSRYCLSSRLRVSATFWQNPRNHFRCQVQFYGLSENDEWTQDRAKPVTQIVSAEAWGRADCGFTSESYQQGVLSATILYEILLGKATLYAVLVSALVLMAMVKRKDSRG
With B1, the results for the EC50 of CD69 expression of TCR-transduced cells after co-incubation with target cells loaded with graded peptide concentrations in assay [1] and in assay [2] were 77 nM and 45 nM, respectively.

B2: TCR1 (TCR, V domains shown)
Valpha: KQEVTQIPAALSVPEGENLVLNCSFTDSAIYNLQWFRQDPGKGLTSLLLIQSSQREQTSGRLNASLDKSSGRSTLYIAASQPGDSATYLCAVNSYSGAGSYQLTFGKGTKLSVIP
Vbeta: EPEVTQTPSHQVTQMGQEVILRCVPISNHLYFYWYRQILGQKVEFLVSFYNNEISEKSEIFDDQFSVERPDGSNFTLKIRSTKLEDSAMYFCASRGGGEQYFGPGTRLTVT
Take B2: the binding result in assay [3], in assay [4] and in assay [5] was “recognises” in each case. Also, the EC50 of peptide was ~45 nM in assay [6] and ~77 nM in assay [7].
